From publication PMC9482650, “Quantitative fragmentomics allow affinity mapping of interactomes” (Nature Communications, 2022)

molecular target: GIPC2, Q8TF65; assay: holdup assay; conditions: plain residues with an end cap or a label only (N-terminal biotin on a linker: (peg)3)
Sequence (Q8TF65 112-203): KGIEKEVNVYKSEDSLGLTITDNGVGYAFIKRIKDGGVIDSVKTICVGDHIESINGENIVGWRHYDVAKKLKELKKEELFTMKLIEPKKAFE

Binder | pKd
YDEPTTTTSVPL [SARS-Cov2-3a, P0DTC3] | below the threshold

molecular target: DLG5_1, Q8TDM6; assay: holdup assay; conditions: plain residues with an end cap or a label only (N-terminal biotin on a linker: (peg)3)
Sequence (Q8TDM6 617-713): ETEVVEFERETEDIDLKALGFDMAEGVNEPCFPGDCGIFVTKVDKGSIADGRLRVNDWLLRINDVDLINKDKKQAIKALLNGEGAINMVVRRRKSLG

Binder | pKd
YDEPTTTTSVPL [SARS-Cov2-3a, P0DTC3] | below the threshold

molecular target: FRMPD4, Q14CM0; assay: holdup assay; conditions: plain residues with an end cap or a label only (N-terminal biotin on a linker: (peg)3)
Sequence (Q14CM0 67-160): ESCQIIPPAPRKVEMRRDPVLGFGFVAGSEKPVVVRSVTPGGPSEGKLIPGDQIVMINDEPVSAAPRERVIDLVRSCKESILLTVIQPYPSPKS

Binder | pKd
YDEPTTTTSVPL [SARS-Cov2-3a, P0DTC3] | 3.97

molecular target: T1, SYNJ2BP, P57105; assay: holdup assay; conditions: plain residues with an end cap or a label only (N-terminal biotin on a linker: (peg)3)
T1 sequence (P57105 8-110, limits assumed, looked up): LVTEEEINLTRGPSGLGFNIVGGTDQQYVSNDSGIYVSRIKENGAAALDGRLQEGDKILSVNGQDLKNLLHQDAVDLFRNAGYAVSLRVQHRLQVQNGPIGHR

Binder | pKd
YDEPTTTTSVPL [SARS-Cov2-3a, P0DTC3] | below the threshold

molecular target: CASK, O14936; assay: holdup assay; conditions: plain residues with an end cap or a label only (N-terminal biotin on a linker: (peg)3)
Sequence (O14936 487-570): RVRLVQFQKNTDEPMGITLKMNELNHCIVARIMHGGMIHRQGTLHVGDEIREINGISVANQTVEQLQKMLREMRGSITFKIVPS

Binder | pKd
YDEPTTTTSVPL [SARS-Cov2-3a, P0DTC3] | below the threshold

molecular target: T2, DFNB31_2, Q9P202; assay: holdup assay; conditions: plain residues with an end cap or a label only (N-terminal biotin on a linker: (peg)3)
T2 sequence (Q9P202 274-371, limits assumed, looked up): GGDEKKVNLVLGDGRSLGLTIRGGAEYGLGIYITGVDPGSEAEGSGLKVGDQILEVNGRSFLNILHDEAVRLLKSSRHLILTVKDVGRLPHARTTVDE

Binder | pKd
YDEPTTTTSVPL [SARS-Cov2-3a, P0DTC3] | below the threshold

molecular target: FRMPD2_3, Q68DX3; assay: holdup assay; conditions: plain residues with an end cap or a label only (N-terminal biotin on a linker: (peg)3)
Sequence (Q68DX3 1073-1166): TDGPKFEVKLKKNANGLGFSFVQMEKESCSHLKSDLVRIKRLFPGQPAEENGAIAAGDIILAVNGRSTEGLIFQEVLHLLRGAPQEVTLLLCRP

Binder | pKd
YDEPTTTTSVPL [SARS-Cov2-3a, P0DTC3] | below the threshold

molecular target: GRIP2_6, Q9C0E4; assay: holdup assay; conditions: plain residues with an end cap or a label only (N-terminal biotin on a linker: (peg)3)
Sequence (Q9C0E4 648-740): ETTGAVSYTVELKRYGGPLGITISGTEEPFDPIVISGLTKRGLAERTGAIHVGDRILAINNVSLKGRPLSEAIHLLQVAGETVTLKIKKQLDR

Binder | pKd
YDEPTTTTSVPL [SARS-Cov2-3a, P0DTC3] | below the threshold

molecular target: T3, PCLO, Q9Y6V0; assay: holdup assay; conditions: plain residues with an end cap or a label only (N-terminal biotin on a linker: (peg)3)
T3 sequence (Q9Y6V0 4491-4600, limits assumed, looked up): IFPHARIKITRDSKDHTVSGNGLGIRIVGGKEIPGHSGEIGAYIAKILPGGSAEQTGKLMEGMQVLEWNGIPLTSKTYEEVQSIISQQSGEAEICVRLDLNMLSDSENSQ

Binder | pKd
YDEPTTTTSVPL [SARS-Cov2-3a, P0DTC3] | below the threshold

molecular target: T4, MPP2, Q14168; assay: holdup assay; conditions: plain residues with an end cap or a label only (N-terminal biotin on a linker: (peg)3)
T4 sequence (Q14168 180-250, limits assumed, looked up): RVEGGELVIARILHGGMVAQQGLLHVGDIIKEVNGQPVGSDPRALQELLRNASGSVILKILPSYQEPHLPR

Binder | pKd
YDEPTTTTSVPL [SARS-Cov2-3a, P0DTC3] | below the threshold

molecular target: T5, PDZRN3_1, Q9UPQ7; assay: holdup assay; conditions: plain residues with an end cap or a label only (N-terminal biotin on a linker: (peg)3)
T5 sequence (Q9UPQ7 244-349, limits assumed, looked up): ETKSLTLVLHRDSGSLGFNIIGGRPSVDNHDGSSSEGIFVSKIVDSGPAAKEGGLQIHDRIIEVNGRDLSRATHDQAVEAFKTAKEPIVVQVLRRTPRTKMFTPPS

Binder | pKd
YDEPTTTTSVPL [SARS-Cov2-3a, P0DTC3] | below the threshold

molecular target: T6, TX1BP3, O14907; assay: holdup assay; conditions: plain residues with an end cap or a label only (N-terminal biotin on a linker: (peg)3)
T6 sequence (O14907 10-122, limits assumed, looked up): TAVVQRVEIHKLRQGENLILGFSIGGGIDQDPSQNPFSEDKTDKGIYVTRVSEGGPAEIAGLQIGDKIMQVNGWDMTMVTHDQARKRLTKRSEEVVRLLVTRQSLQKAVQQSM

Binder | pKd
YDEPTTTTSVPL [SARS-Cov2-3a, P0DTC3] | below the threshold

molecular target: T7, SNTG1, Q9NSN8; assay: holdup assay; conditions: plain residues with an end cap or a label only (N-terminal biotin on a linker: (peg)3)
T7 sequence (Q9NSN8 52-150, limits assumed, looked up): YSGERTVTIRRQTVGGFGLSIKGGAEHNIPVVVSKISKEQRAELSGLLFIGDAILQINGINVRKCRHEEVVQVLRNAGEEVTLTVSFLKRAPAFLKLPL

Binder | pKd
YDEPTTTTSVPL [SARS-Cov2-3a, P0DTC3] | below the threshold

molecular target: T8, GRIP1_2, Q9Y3R0; assay: holdup assay; conditions: plain residues with an end cap or a label only (N-terminal biotin on a linker: (peg)3)
T8 sequence (Q9Y3R0 145-248, limits assumed, looked up): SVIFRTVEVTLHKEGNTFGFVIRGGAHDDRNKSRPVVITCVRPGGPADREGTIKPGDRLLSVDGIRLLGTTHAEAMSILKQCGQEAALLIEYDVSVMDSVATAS

Binder | pKd
YDEPTTTTSVPL [SARS-Cov2-3a, P0DTC3] | below the threshold

molecular target: T9, LRRC7, Q96NW7; assay: holdup assay; conditions: plain residues with an end cap or a label only (N-terminal biotin on a linker: (peg)3)
T9 sequence (Q96NW7 1440-1537, limits assumed, looked up): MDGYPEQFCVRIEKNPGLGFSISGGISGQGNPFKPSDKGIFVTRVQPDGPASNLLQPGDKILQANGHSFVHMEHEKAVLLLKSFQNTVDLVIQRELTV

Binder | pKd
YDEPTTTTSVPL [SARS-Cov2-3a, P0DTC3] | below the threshold

molecular target: T10, TIAM2, Q8IVF5; assay: holdup assay; conditions: plain residues with an end cap or a label only (N-terminal biotin on a linker: (peg)3)
T10 sequence (Q8IVF5 885-986, limits assumed, looked up): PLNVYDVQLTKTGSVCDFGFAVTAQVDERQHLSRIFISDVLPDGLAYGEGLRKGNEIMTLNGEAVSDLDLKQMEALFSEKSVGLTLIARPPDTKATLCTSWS

Binder | pKd
YDEPTTTTSVPL [SARS-Cov2-3a, P0DTC3] | below the threshold

molecular target: MAGI1_2, Q96QZ7; assay: holdup assay; conditions: plain residues with an end cap or a label only (N-terminal biotin on a linker: (peg)3)
Sequence (Q96QZ7 456-580): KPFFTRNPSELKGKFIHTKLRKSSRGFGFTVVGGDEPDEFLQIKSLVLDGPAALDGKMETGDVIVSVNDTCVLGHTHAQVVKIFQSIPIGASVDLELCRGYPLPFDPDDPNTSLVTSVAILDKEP

Binder | pKd
YDEPTTTTSVPL [SARS-Cov2-3a, P0DTC3] | below the threshold

molecular target: T11, DFNB31_1, Q9P202; assay: holdup assay; conditions: plain residues with an end cap or a label only (N-terminal biotin on a linker: (peg)3)
T11 sequence (Q9P202 135-233, limits assumed, looked up): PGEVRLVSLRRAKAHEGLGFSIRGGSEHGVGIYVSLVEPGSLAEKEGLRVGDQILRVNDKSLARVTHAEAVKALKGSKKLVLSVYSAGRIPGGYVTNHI

Binder | pKd
YDEPTTTTSVPL [SARS-Cov2-3a, P0DTC3] | below the threshold

molecular target: T12, FRMPD1, Q5SYB0; assay: holdup assay; conditions: plain residues with an end cap or a label only (N-terminal biotin on a linker: (peg)3)
T12 sequence (Q5SYB0 52-145, limits assumed, looked up): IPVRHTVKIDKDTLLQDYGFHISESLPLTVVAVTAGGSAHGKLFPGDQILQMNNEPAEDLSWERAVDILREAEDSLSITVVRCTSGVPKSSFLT

Binder | pKd
YDEPTTTTSVPL [SARS-Cov2-3a, P0DTC3] | below the threshold

molecular target: T13, PDZD2_2, O15018; assay: holdup assay; conditions: plain residues with an end cap or a label only (N-terminal biotin on a linker: (peg)3)
T13 sequence (O15018 329-429, limits assumed, looked up): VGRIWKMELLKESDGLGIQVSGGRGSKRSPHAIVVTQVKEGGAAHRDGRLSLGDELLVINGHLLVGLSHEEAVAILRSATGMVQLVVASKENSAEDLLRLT

Binder | pKd
YDEPTTTTSVPL [SARS-Cov2-3a, P0DTC3] | below the threshold

molecular target: T14, PTPN13_1, Q12923; assay: holdup assay; conditions: plain residues with an end cap or a label only (N-terminal biotin on a linker: (peg)3)
T14 sequence (Q12923 1088-1188, limits assumed, looked up): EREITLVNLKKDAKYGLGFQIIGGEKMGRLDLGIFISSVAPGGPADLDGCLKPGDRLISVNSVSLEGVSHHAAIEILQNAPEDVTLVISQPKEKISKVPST

Binder | pKd
YDEPTTTTSVPL [SARS-Cov2-3a, P0DTC3] | below the threshold

molecular target: Inadl_3, Q8NI35; assay: holdup assay; conditions: plain residues with an end cap or a label only (N-terminal biotin on a linker: (peg)3)
Sequence (Q8NI35 359-469): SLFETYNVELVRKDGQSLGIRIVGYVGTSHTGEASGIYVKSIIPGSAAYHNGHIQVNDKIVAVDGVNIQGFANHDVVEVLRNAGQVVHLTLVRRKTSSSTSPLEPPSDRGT

Binder | pKd
YDEPTTTTSVPL [SARS-Cov2-3a, P0DTC3] | below the threshold

molecular target: SNX27, Q96L92; assay: holdup assay; conditions: plain residues with an end cap or a label only (N-terminal biotin on a linker: (peg)3)

Binder | pKd
YDEPTTTTSVPL [SARS-Cov2-3a, P0DTC3] | below the threshold
